Results from publication PMC9687680 (2022).
One block for each compound: values may come before it.

Tests used:
[1] = biological target: T1, CD133 on PLC/PRF/5 cells (human) (UniProt O43490); assay: flow cytometry (cell binding); conditions: PLC/PRF/5 cells, 37 C, Aptamer folded in PBS with 2.5 mM Mg2+ (85 C 5 min, RT, 37 C 15 min), binding to cells in PBS-based blocking buffer, 30 min, CD133-negative HEK293T cells …
T1 sequence: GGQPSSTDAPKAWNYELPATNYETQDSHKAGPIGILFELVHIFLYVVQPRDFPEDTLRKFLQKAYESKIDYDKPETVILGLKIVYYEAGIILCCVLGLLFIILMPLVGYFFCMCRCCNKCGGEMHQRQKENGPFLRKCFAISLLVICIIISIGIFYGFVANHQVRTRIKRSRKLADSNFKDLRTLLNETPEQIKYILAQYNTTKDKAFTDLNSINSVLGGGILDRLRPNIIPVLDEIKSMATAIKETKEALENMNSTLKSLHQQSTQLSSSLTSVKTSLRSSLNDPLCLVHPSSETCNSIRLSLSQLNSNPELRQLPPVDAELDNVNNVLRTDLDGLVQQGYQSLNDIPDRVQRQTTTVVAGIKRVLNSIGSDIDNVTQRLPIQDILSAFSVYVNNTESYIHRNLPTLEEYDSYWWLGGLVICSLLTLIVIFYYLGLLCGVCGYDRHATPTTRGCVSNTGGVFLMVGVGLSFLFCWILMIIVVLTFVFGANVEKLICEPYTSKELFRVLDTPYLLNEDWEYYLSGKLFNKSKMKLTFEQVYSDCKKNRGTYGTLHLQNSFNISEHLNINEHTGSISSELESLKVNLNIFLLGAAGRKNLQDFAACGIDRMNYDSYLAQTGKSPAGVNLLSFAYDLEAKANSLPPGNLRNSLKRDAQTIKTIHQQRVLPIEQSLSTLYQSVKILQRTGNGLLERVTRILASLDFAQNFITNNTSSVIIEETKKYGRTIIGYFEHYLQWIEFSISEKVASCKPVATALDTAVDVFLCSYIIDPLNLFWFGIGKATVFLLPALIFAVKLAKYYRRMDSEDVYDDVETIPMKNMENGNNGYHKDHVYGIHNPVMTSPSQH

[2] = biological target: T2, CD133 on Huh7 cells (human) (UniProt O43490); assay: flow cytometry (cell binding); conditions: Huh7 cells, 37 C, Aptamer folded in PBS with 2.5 mM Mg2+ (85 C 5 min, RT, 37 C 15 min), binding to cells in PBS-based blocking buffer, 30 min, CD133-negative HEK293T cells …
T2 sequence: T1 sequence

[3] = system: CD133 aptamer (hybrid RNA-DNA, 10-bp DNA GC stem) (DNA:RNA, aptamer, 2'-fluoro on all pyrimidines (C and U) of the RNA part; 5-methyl-dC (printed 5'-methyl-dC) in the DNA stem) CGCGCGCCGCUCCUACAUAGCGGCGCGCG; assay: DOX fluorescence quenching; conditions: DOX 10 µM, aptamer 1-10 µM, 30 min; >90% quenching at aptamer:DOX 0.27
[4] = system: CD133 aptamer (hybrid RNA-DNA, 10-bp DNA GC stem) (DNA:RNA, aptamer, 2'-fluoro on all pyrimidines (C and U) of the RNA part; 5-methyl-dC (printed 5'-methyl-dC) in the DNA stem) CGCGCGCCGCUCCUACAUAGCGGCGCGCG; assay: ITC; conditions: Mg2+ 2.5 mM, PBS (Na+, K+), 25 °C, DOX 100 µM injected, aptamer 2 µM or 100 µM (supplement)
[5] = 2'-O-methyl instead of 2'-fluoro on pyrimidines (C and U)
[6] = apparent Kd, 2'-fluoro on all pyrimidines, 5-methyl-dC in stem, hexylamine cap at 3' end

Compound: CGCGCGCCGCUCCUACAUAGCGGCGCGCG [negative control CD133 aptamer (2'-OMe)]
- Kd [1, 5]: > 1000 nM
- Kd [2, 5]: > 1000 nM

- binding [3]: yes
- KD [4]: 634 nM
Compound: COc1cccc2c1C(=O)c1c(O)c3c(c(O)c1C2=O)C[C@@](O)(C(=O)CO)C[C@@H]3O[C@H]1C[C@H](N)[C@H](O)[C@H](C)O1

Compound: CGCGCGCCGCUCCUACAUAGCGGCGCGCG [CD133 aptamer (RNA loop, DNA GC stem)]
- Kd [1, 6]: 11 nM
- Kd [2, 6]: 27 nM
